Experimental data: PMC6787100, “Endophyte Bacillus subtilis evade plant defense by producing lantibiotic subtilomycin to mask self-produced flagellin” (Communications Biology, 2019)

B1: flg22 (Bs), synthetic flg22 peptide of B. subtilis Hag (peptide)
chain: EKLSSGLRINRAGDDAAGLAIS
B2: 6× His-tagged Hag protein (natural protein)
chain: not shown
modifications: labelled with Cy5-NHS ester (in the MST assay only)
B3: ∆Hag (flg22), Hag with the flg22 region deleted (domain or fragment)
chain: not shown

Molecular target: T1, lantibiotic subtilomycin (Bacillus subtilis BSn5, lantibiotic; ApnB carries out the essential dehydration reaction of its biosynthesis; the modified residues are not listed)
T1 construct: subtilomycin, the lantibiotic made from the structural peptide encoded by apnA of Bacillus subtilis BSn5; exact molecular weight 3234.36 Da; Purified subtilomycin holds oligomers (trimers, tetramers, pentamers); source: B. subtilis BSn5 ∆hag mutant, 30% ammonium sulfate precipitate of culture supernatant, purified by prep-HPLC; also native in Apn5 (30% ammonium sulfate precipitate of BSn5 culture …)
Assay: MST; protein labelled with Cy5-NHS ester at fixed concentration, serial 2x dilutions of unlabelled subtilomycin (1 mM set as highest; 500 μM highest final in the legend); PBS pH 8.0; MST power 20%, LED power 60%; Monolith NT.115; constants called ambiguous, based on total subtilomycin concentration
Conditions: both partners purified

| Binder | Kd |
| --- | --- |
| B1 | 169 ± 10.4 µM |
| B2 | 18.8 ± 4.15 µM |
| B3 | 66.4 ± 9.11 µM |
